Test [1] has as its target SorLA extracellular domain (immobilized on the Biacore chip) (Homo sapiens) (UniProt Q92673). The experiment in a line: SPR (Biacore), SorLA immobilized; series of 20, 50, 100 and 200 nM.
Test [2] has the same target. The test can be described thus: SPR, immobilized SorLA.
Test [3] shares this target. The test can be described thus: SPR, GFRα1 over immobilized SorLA extracellular domain.
Test [4] has as its target SorLA expressed on cells (stably transfected HEK293 cells; SY5Y neuroblastoma cells, endogenous or overexpressed) (Homo sapiens) (UniProt Q92673). The experiment in a line: FRET on non-permeabilized fixed cells, SorLA acceptor, GFRα1 donor.
Test [5] deals with T1, SorLA extracellular domain (immobilized on the Biacore chip) (Homo sapiens, UniProt Q92673 82-2137).
T1 construct: also called immobilized SorLA; LR11
The experiment in a line: SPR (Biacore), SorLA immobilized; GST fusion protein, concentration not given. The text has this: (A) fusion proteins between GST and the GDNF propeptide (GDNFpropep), the N-terminal 38 amino acids of mature GDNF (GDNFN-term), or the GDNF propeptide followed by the first 38 amino acids of mature GDNF (GDNFN-term propep) binding to immobilized SorLA. GST alone is included as negative control. (B) a peptide encompassing the first 38 amino acids of mature GDNF binds to SorLA in concentration-dependent manner.

Test [6] has as its target T1, SorLA extracellular domain (immobilized …). The test can be described thus: SPR, immobilized SorLA (title of Fig. 17).
For test [7] the target is unchanged. The experiment in a line: SPR, immobilized SorLA.
Test [8] shares this target. The test can be described thus: SPR (Biacore), SorLA immobilized; SorLApro 10 uM by the legend, injected before GDNF in the inhibition experiment. On the procedure: (§1) (A) The domain structure of SorLA is depicted. (B) GDNF binds to immobilized SorLA in a concentration-dependent manner as shown by SPR. […] (C) SorLA binding is selective for GDNF and not the other GDNF family ligands, artemin, neuturin, and persephin. The neurotrophic factor concentrations used are 20 nM. (D) The interaction is mediated by the mature part of GDNF and not the GDNF propeptide (GDNFpro). Sensorgrams of 100 nM ligand concentration are shown. […] (G-H) Internalization of 50 nM GDNF by 293 cells or 293 cells stably expressing SorLA. Internalized GDNF (green) was visualized by immunofluorescense. (I) GDNF internalization was inhibited by excess neurotensin (NT, 20 μM).

Test [9] has the same target. The test can be described thus: SPR, GDNF over immobilized SorLA; upper end of the range. As to the method:
as §1

For test [10] the target is unchanged. The experiment in a line: SPR, GDNF over immobilized SorLA; lower end of the range. On the procedure:
as §1

Where no end group is shown, it is not given here.

T1 sequence (Q92673 82-2137 limits assumed): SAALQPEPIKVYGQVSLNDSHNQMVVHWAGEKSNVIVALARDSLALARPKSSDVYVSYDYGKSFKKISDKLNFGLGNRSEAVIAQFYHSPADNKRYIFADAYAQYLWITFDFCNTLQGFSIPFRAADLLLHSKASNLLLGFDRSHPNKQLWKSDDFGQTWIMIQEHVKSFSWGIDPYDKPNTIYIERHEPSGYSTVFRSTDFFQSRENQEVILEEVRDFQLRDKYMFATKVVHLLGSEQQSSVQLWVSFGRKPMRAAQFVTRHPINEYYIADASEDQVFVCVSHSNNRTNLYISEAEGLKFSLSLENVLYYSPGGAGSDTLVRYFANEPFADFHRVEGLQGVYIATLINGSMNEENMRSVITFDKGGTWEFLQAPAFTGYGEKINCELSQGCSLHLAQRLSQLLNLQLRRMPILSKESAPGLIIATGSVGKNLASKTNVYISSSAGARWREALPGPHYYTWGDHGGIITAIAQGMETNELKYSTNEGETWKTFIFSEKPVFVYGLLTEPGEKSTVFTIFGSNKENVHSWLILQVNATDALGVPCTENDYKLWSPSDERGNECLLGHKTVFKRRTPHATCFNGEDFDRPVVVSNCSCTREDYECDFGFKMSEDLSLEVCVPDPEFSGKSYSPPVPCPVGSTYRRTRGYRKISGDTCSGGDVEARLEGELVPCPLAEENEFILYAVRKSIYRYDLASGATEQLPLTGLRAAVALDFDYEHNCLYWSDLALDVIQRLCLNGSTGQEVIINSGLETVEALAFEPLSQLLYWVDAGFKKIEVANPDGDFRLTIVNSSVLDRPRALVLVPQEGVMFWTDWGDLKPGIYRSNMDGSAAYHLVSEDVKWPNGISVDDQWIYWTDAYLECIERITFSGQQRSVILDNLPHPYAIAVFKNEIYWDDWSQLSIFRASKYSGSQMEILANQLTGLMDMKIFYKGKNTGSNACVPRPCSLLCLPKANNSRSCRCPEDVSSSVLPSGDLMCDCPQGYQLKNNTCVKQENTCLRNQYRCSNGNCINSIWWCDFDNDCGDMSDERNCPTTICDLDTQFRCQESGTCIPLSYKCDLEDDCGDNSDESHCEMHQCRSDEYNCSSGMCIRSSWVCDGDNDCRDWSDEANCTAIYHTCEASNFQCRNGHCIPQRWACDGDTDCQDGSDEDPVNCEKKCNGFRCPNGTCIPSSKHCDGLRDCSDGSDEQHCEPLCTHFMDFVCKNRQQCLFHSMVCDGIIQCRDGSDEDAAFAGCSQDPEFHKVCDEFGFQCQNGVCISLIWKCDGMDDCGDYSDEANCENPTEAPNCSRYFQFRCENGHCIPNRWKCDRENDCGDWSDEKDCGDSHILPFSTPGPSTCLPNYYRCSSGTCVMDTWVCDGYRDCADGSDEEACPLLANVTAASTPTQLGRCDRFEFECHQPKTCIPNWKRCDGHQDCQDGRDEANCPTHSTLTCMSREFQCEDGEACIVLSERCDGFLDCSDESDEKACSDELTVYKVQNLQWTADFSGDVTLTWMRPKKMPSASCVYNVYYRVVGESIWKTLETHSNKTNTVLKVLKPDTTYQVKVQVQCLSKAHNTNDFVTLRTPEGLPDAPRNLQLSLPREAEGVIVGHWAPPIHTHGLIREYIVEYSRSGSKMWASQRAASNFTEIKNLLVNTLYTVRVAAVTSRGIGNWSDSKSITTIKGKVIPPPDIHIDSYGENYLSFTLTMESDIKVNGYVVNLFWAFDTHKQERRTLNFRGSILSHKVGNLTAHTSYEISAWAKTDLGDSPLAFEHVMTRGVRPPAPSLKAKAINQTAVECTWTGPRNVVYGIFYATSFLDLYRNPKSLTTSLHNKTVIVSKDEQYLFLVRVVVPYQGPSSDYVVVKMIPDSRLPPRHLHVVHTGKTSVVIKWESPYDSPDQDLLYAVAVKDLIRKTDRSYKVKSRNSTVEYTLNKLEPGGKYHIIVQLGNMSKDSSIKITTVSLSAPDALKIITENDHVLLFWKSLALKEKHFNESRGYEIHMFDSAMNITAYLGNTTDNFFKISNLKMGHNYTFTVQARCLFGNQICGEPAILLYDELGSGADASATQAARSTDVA
Sequence of SorLA extracellular domain (immobilized on the Biacore chip) (Homo sapiens) (Q92673 82-2137 limits assumed): as above
Sequence of SorLA expressed on cells (stably transfected HEK293 cells; SY5Y neuroblastoma cells, endogenous or overexpressed) (Homo sapiens) (Q92673 82-2214 limits assumed): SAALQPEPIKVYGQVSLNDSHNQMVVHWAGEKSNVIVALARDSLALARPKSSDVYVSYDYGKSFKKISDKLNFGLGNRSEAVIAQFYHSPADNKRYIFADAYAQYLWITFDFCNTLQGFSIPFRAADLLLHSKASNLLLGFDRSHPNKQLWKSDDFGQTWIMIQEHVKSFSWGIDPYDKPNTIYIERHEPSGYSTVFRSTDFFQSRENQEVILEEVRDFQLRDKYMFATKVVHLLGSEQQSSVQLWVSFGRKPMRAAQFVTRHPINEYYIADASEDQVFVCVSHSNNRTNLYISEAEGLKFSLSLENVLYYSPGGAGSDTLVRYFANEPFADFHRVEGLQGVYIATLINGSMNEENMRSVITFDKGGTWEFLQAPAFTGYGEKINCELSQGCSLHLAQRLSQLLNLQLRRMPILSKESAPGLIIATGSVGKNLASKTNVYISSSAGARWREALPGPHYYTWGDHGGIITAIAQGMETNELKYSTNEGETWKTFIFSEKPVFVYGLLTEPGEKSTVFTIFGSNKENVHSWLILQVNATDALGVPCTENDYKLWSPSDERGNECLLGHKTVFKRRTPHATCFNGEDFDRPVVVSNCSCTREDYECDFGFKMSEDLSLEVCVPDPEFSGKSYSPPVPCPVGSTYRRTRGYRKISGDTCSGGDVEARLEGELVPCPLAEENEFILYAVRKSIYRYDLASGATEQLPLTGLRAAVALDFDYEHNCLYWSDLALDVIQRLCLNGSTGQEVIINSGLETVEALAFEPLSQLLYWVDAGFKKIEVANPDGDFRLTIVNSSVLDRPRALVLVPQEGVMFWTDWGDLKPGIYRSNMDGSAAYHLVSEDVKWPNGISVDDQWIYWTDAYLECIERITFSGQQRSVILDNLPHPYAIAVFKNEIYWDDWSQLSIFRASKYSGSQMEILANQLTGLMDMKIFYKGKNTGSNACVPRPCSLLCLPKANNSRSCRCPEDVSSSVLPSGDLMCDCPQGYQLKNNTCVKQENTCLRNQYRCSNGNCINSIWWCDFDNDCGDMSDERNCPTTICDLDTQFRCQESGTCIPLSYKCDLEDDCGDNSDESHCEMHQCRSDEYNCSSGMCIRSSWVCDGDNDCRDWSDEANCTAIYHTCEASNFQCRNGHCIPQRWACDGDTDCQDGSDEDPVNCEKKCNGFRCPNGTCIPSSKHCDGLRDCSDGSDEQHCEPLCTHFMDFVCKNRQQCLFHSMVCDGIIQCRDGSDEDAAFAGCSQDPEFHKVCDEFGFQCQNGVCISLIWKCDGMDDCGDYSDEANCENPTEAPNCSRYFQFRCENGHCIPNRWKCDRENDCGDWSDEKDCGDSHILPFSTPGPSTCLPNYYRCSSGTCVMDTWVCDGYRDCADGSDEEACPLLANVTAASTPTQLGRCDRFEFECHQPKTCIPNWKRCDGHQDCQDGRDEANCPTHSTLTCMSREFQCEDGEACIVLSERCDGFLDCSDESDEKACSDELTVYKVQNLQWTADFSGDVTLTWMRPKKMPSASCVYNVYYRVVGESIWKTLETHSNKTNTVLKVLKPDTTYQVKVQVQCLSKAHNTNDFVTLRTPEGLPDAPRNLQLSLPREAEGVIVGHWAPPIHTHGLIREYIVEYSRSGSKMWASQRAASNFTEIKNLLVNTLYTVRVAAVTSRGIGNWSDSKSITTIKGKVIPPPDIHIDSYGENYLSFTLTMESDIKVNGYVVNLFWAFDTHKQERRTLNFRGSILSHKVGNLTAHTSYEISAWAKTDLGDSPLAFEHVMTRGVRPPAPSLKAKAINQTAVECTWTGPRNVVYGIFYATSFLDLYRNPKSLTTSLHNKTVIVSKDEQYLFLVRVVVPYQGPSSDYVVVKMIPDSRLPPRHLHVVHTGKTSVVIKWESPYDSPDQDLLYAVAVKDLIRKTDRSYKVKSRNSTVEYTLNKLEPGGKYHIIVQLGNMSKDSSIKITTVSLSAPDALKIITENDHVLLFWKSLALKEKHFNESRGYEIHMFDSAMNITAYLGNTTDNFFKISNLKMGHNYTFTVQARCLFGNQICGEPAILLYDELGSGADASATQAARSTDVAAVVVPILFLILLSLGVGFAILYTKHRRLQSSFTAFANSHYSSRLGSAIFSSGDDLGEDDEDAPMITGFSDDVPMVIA

Regarding “soluble full length GFRα1 (from UniProt P56159 25-429) (receptor)”, the Kd came out at 0.01 µM in test [1], 0.012 µM in [2] and 0.006 µM in test [3].

With “N-terminal truncated soluble GFRα1 variant lacking domain 1 (from UniProt P56159 145-429) (receptor)”, the Kd in [2] came to 0.12 µM.

Turning to “GFRα1 expressed on cells (stably transfected HEK293 cells) (from UniProt P56159 25-429) (receptor)”, the mean Eapp% in [4] came out at 16%.

B1: GDNFN-term (other)
chain: SPDKQMAVLPRRERNRQAAAANPENSRGKGRRGQRGKN
modifications: also: GST fusion partner (letters not given here)
notes: also called GST fusion of the N-terminal 38 amino acids of mature GDNF; not shown: GST fusion partner and any linker to it
With B1, in [5], the binding result is on record as “binds”.

B2: peptide encompassing the first 38 amino acids of mature GDNF (peptide)
peptide: B1 chain
notes: also called N-terminal 38 amino acids of mature GDNF
Regarding B2, in test [6], the binding result is “binds”.

B3: neuturin (neurturin) (ligand, UniProt Q99748 96-197, looked up)
chain: ARLGARPCGLRELEVRVSELGLGYASDETVLFRYCAGACEAAARVYDLGLRRLRQRRRLRRERVRAQPCCRPTAYEDEVSFLDAHSRYHTVHELSARECACV
notes: also called NRTN
As for B3, the binding result in [7] is given as “no binding (tested: 20 nM)”.

B4: SorLA propeptide (peptide)
peptide: EVWTQRLHGGSAPLPQDRGFLVVQGDPRELRLWARGDARGASRADEKPLRRKR
B4: the binding result in test [8] is recorded as “binds”.

B5: GDNFpropep (other)
fusion protein: FPLPAGKRPPEAPAEDRSLGRRRAPFALSSDSNMPEDYPDQFDDVMDFIQATIKRLKR
notes: also called GST fusion of the GDNF propeptide
Turning to B5, the binding result in test [5] is listed as “no binding”.

B6: GDNF propeptide (peptide)
peptide: B5 fusion protein
As to B6, the binding result in test [7] was “no binding (tested: 100 nM)”.

B7: Glia cell-derived neurotrophic factor (GDNF) (ligand)
chain: SPDKQMAVLPRRERNRQAAAANPENSRGKGRRGQRGKNRGCVLTAIHLNVTDLGLGYETKEELIFRYCSGSCDAAETTYDKILKNLSRNRRLVSDKVGQACCRPIAFDDDLSFLDDNLVYHILRKHSAKRCGCI
notes: also called mature GDNF
Turning to B7, the Kd in [9] was not above 0.008 µM; in test [10] it was not below 0.003 µM.

B8: GDNFN-term propep (other, not shown: a dimerising Fc or GST; large carriers; small tags and cut ends)
chain: FPLPAGKRPPEAPAEDRSLGRRRAPFALSSDSNMPEDYPDQFDDVMDFIQATIKRLKRSPDKQMAVLPRRERNRQAAAANPENSRGKGRRGQRGKN
notes: also called GST fusion of the GDNF propeptide followed by the first 38 amino acids of mature GDNF
Consider B8, for which the binding result in test [5] is on record as “binds”.

B9: persephin (ligand, UniProt O60542 61-156, looked up)
chain: ALSGPCQLWSLTLSVAELGLGYASEEKVIFRYCAGSCPRGARTQHGLALARLQGQGRAHGGPCCRPTRYTDVAFLDDRHRWQRLPQLSAAACGCGG
notes: also called PSPN
As for B9, the binding result in test [7] is listed as “no binding (tested: 20 nM)”.

B10: artemin (ligand, UniProt Q5T4W7 108-220, looked up)
chain: AGGPGSRARAAGARGCRLRSQLVPVRALGLGHRSDELVRFRFCSGSCRRARSPHDLSLASLLGAGALRPPPGSRPVSQPCCRPTRYEAVSFMDVNSTWRTVDRLSATACGCLG
notes: also called ARTN
On to B10, for which the binding result in test [7] is “no binding (tested: 20 nM)”.

(Values after patent US20130115212A1 (LUNDBECK A S, published 2013).)
